Results from PMC9385563 (Molecules and Cells, 2022).
Residue numbers refer to the chain shown, from its start. Numbers in names are those of the source.

Tests used:
ABCB6-∆TMD0 [1] = molecular target: T1, ABCB6-∆TMD0 (Homo sapiens, UniProt Q9NP58); experiment: microscale thermophoresis, initial fluorescence change; format: binding
T1 sequence (Q9NP58 206-842): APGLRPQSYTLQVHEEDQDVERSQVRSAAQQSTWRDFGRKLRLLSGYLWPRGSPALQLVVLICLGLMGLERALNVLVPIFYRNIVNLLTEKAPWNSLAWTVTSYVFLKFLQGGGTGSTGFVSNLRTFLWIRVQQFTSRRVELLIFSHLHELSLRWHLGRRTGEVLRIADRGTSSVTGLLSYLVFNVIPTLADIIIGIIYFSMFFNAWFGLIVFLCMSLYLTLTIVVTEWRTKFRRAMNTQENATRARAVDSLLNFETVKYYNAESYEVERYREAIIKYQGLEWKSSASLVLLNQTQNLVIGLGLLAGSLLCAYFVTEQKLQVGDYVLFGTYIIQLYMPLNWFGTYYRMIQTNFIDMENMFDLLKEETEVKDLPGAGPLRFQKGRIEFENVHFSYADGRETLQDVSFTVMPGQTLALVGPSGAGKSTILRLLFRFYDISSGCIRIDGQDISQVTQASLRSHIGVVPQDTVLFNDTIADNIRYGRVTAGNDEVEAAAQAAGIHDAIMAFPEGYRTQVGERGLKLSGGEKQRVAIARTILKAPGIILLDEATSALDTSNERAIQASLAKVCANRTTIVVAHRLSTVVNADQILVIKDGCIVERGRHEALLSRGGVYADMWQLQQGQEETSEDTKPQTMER

ABCB6-∆TMD0 [2] = molecular target: T2, ABCB6-∆TMD0 (Homo sapiens, UniProt Q9NP58, DEL318-324); experiment: as above; format: binding
T2 sequence (Q9NP58 with tags, fused parts or gaps DEL318-324): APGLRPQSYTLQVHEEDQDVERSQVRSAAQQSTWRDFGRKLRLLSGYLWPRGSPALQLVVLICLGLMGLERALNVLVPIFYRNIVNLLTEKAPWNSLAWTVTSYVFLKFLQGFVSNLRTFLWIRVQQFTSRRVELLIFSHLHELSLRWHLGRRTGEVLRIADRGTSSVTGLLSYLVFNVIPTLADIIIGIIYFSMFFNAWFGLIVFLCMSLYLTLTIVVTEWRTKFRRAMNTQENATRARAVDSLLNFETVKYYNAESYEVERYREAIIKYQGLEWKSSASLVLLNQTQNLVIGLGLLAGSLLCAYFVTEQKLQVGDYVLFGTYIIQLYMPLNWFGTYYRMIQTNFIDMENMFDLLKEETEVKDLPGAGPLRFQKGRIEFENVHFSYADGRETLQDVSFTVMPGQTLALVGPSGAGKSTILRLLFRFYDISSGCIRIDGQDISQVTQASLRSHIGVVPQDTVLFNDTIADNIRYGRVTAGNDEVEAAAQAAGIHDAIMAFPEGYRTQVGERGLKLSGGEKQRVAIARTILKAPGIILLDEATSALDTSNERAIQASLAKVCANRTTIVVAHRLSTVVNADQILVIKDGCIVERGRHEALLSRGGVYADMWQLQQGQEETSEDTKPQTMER

ABCB6-∆TMD0 [3] = molecular target: T3, ABCB6-∆TMD0 (Homo sapiens, UniProt Q9NP58, R435A/R439A/R552A); experiment: as above; format: binding
T3 sequence (Q9NP58 206-842 R435A/R439A/R552A): T1 sequence (Q9NP58 206-842) with R230A, R234A, R347A

purified protein [4] = substrate: C=CC1=C(C)C2=Cc3c(C=C)c(C)c4[n]3[Fe]([Cl])[n]3c(c(C)c(CCC(=O)O)c3=CC3=NC(=C4)C(C)=C3CCC(=O)O)=CC1=N2; experiment: purified protein; conditions: Km from stimulation of ATP hydrolysis, 37°C
purified protein [5] = substrate: CC1=C(CCC(=O)O)c2cc3nc(cc4[nH]c(cc5[nH]c(cc1n2)c(C)c5CCC(=O)O)c(CCC(=O)O)c4C)C(CCC(=O)O)=C3C; experiment: purified protein; conditions: Km from stimulation of ATP hydrolysis, 37°C, Cymal-6/CHS
cryo-EM structure = molecular target: the molecule itself; experiment: cryo-EM structure

## CC1=C(CCC(=O)O)c2cc3nc(cc4[nH]c(cc5[nH]c(cc1n2)c(C)c5CCC(=O)O)c(CCC(=O)O)c4C)C(CCC(=O)O)=C3C [CPIII]
ABCB6-∆TMD0 [1]
  Kd: 8.2 ± 0.1 µM
ABCB6-∆TMD0 [2]
  Kd: 14.1 ± 0.9 µM
ABCB6-∆TMD0 [3]
  Kd: 17.8 ± 3 µM

B1: ABCB6-∆TMD0 (core region of human ABCB6, residues 206-842) (domain or fragment, UniProt Q9NP58 206-842, looked up)
chain: T1 sequence (Q9NP58 206-842)
Purified protein [4]; with 1 mM GSH, Cymal-6/CHS
  Km: 3 ± 0.3 µM
  kcat: 36 min^–1
Purified protein [5]
  Km: 19 ± 3.7 µM
  kcat: 25 min^–1
cryo-EM structure
  stoichiometry N: 2

B2: ABCB6-∆TMD0 (Homo sapiens; Y550A) (protein)
chain: T1 sequence (Q9NP58 206-842) with Y345A
Purified protein [4]; with GSH
  Km: 10 µM
